# Laboratory results published in patent US7276644.
# Biological target: actin of the acto-HMM complexes in Example II
# Assay: stopped-flow; effects of ADP on ATP-mediated dissociation of acto-HMM
row,"maximum rate constant for dissociation of acto-HMM (ATP-mediated, with ADP)",Substance
1,140 s⁻¹,HMM from rat β cardiac myosin heavy chain (hypothyroid rat) (from UniProt P02564 1-1282) (enzyme)
2,600 s⁻¹,rat α cardiac myosin HMM (chymotryptic heavy meromyosin of native hyperthyroid rat ventricular α-myosin) (from UniProt P02563 1-1285) (enzyme)
3,35 s⁻¹,HMM from pig β cardiac myosin heavy chain (from UniProt P79293 1-1282) (enzyme)
